Laboratory results from US20100009361.

Target: HA-tagged RAS

B1: full-length, HA-tagged wild-type SOS1 (protein)
chain: MQAQQLPYEFFSEENAPKWRGLLVPALKKVQGQVHPTLESNDDALQYVEELILQLLNMLCQAQPRSASDVEERVQKSFPHPIDKWAIADAQSAIEKRKRRNPLSLPVEKIHPLLKEVLGYKIDHQVSVYIVAVLEYISADILKLVGNYVRNIRHYEITKQDIKVAMCADKVLMDMFHQDVEDINILSLTDEEPSTSGEQTYYDLVKAFMAEIRQYIRELNLIIKVFREPFVSNSKLFSANDVENIFSRIVDIHELSVKLLGHIEDTVEMTDEGSPHPLVGSCFEDLAEELAFDPYESYARDILRPGFHDRFLSQLSKPGAALYLQSIGEGFKEAVQYVLPRLLLAPVYHCLHYFELLKQLEEKSEDQEDKECLKQAITALLNVQSGMEKICSKSLAKRRLSESACRFYSQQMKGKQLAIKKMNEIQKNIDGWEGKDIGQCCNEFIMEGTLTRVGAKHERHIFLFDGLMICCKSNHGQPRLPGASNAEYRLKEKFFMRKVQINDKDDTNEYKHAFEIILKDENSVIFSAKSAEEKNNWMAALISLQYRSTLERMLDVTMLQEEKEEQMRLPSADVYRFAEPDSEENIIFEENMQPKAGIPIIKAGTVIKLIERLTYHMYADPNFVRTFLTTYRSFCKPQELLSLIIERFEIPEPEPTEADRIAIENGDQPLSAELKRFRKEYIQPVQLRVLNVCRHWVEHHFYDFERDAYLLQRMEEFIGTVRGKAMKKWVESITKIIQRKKIARDNGPGHNITFQSSPPTVEWHISRPGHIETFDLLTLHPIEIARQLTLLESDLYRAVQPSELVGSVWTKEDKEINSPNLLKMIRHTTNLTLWFEKCIVETENLEERVAVVSRIIEILQVFQELNNFNGVLEVVSAMNSSPVYRLDHTFEQIPSRQKKILEEAHELSEDHYKKYLAKLRSINPPCVPFFGIYLTNILKTEEGNPEVLKRHGKELINFSKRRKVAEITGEIQQYQNQPYCLRVESDIKRFFENLNPMGNSMEKEFTDYLFNKSLEIEPRNPKPLPRFPKKYSYPLKSPGVRPSNPRPGTMRHPTPLQQEPRKISYSRIPESETESTASAPNSPRTPLTPPPASGASSTTDVCSVFDSDHSSPFHSSNDTVFIQVTLPHGPRSASVSSISLTKGTDEVPVPPPVPPRRRPESAPAESSPSKIMSKHLDSPPAIPPRQPTSKAYSPRYSISDRTSISDPPESPPLLPPREPVRTPDVFSSSPLHLQPPPLGKKSDHGNAFFPNSPSPFTPPPPQTPSPHGTRRHLPSPPLTQEVDLHSIAGPPVPPRQSTSQHIPKLPPKTYKREHTHPSMHRDGPPLLENAHSS
RAS activation: When wild type SOS1 was expressed, RAS activation was low in serum-deprived cells, then increased rapidly after EGF stimulation and finally returned toward basal levels by 30 min
